Experimental data from patent US20240026407A1, “MODIFICATION OF SAPONINS” (GLAXOSMITHKLINE BIOLOGICALS SA, priority 2020, published 2024).

What was measured:
Format in all cases: biochemical, Quillaja saponaria
[1] = Experiment 5-2: screening of additional glucosidases for deglycosylation with QS-18 in crude bark extract (80%) at pH 6 and 35 deg C; conditions: CBE 80%, pH 6, 35 deg C, 18 hours; UV HPLC
Method: A plate was lysed at pH 6 as described in Experiment 4-2. 40 uL of clarified lysate was transferred to a reaction plate
The pH of CBE was adjusted to pH 6 by dropwise addition of 2M NaOH with stirring. 160 uL of pH 6 CBE was added to each well of the reaction plate. The reaction plate was sealed and incubated at 35 deg C. with shaking for 18 hours.
The reaction plate was quenched by adding 200 uL of MeCN (2% acetic acid (AcOH), 1 mg/mL hexanophenone) to each well of the plates. The quenched reaction plate was re-sealed and incubated at 20 deg C. with shaking for 10 min. The reaction plate was then centrifuged (10 min, 4 degC).
200 uL was transferred from each well of the quenched plate to the corresponding wells of a fresh 96 well plate and sealed. The plate was analysed by UV HPLC with the method of Experiment 4-4.

[2] = Experiment 5-3: screening of additional glucosidases for deglycosylation with QS-18 in treated bark extract (80%) at pH 6 and 35 deg C; conditions: TBE 80% (QS-21 approx. 4 g/L), pH 6, 35 deg C; UV HPLC
Method: Experiment 5-1 was repeated, replacing CBE with Treated Bark Extract (TBE) at pH 6. TBE was prepared from CBE by PVPP treatment and concentration, to provide TBE with a QS-21 concentration of approximately 4 g/L. TBE was adjusted to pH 6 by dropwise addition of 2M NaOH with stirring.

[3] = Experiment 5-1: screening of additional glucosidases for deglycosylation with purified QS-18 (0.04 mg/ml) at pH 7.5 and 30 deg C; conditions: pH 7.5, 30 degrees C, 18 hours, LCMS/MS
Method: The 94 additional genes, together with positive control (DNA encoding SEQ ID No. 262) and negative control, were transformed, expressed, lysed and reacted in the same manner as described above for Experiment 4-1, except the reaction was incubated at 30 degrees C. for 18 hours.
Samples were analysed by LCMS/MS according to the procedure in Experiment 4-1.

[4] = Experiment 6-1: screening of rhamnosidases for derhamnosylation of saponins in treated bark extract (2%), QS-17 2310 to QS-18 2164 (PAR %); conditions: TBE 2%, pH 7.5, 30 degC, 18 h; TIC peak area ratio percent, LCMS/MS; negative controls 3.061, 2.429
[5] = Experiment 6-1: screening of rhamnosidases for derhamnosylation of saponins in treated bark extract (2%), QS-17 2296 to QS-18 2150 (PAR %); conditions: TBE 2%, pH 7.5, 30 degC, 18 h; TIC peak area ratio percent of rhamnosylated starting saponin to derhamnosylated product, LCMS/MS; negative controls 4.876, 5.225
[6] = Experiment 6-3: screening of rhamnosidases for derhamnosylation of saponins in crude bark extract (80%), relative % of Left, Middle and Right Peak by UV HPLC; conditions: CBE 80%, pH 7.4, 30 degC, 19.5 h
In short: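 Clarified lysates of expressed rhamnosidase variants were incubated with crude bark extract (pH 7.4, final 80%) at 30 degC with shaking for 19.5 h, then quenched with MeCN+2% AcOH. UV HPLC gave relative % of Left (QS-17), Middle (QS-18/desglucosyl-QS-17) and Right (QS-21) peaks.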

[7] = Experiment 6-1: screening of rhamnosidases for derhamnosylation of saponins in treated bark extract (2%), desglucosyl-QS-17 2134 to QS-21 1988 (PAR %); conditions: TBE 2%, pH 7.5, 30 degC, 18 h; TIC peak area ratio percent, LCMS/MS; negative controls 2.719, 2.158
[8] = Experiment 6-1: specificity of rhamnosidases towards other rhamnose residues (C3 saccharide rhamnose, C28 saccharide rhamnose); conditions: TBE 2%, pH 7.5, 30 degC, 18 h; LCMS/MS; negative controls 0.18, 0.17
[9] = Experiment 6-2: screening of rhamnosidases for derhamnosylation of saponins in treated bark extract (25%), relative % of Left, Middle and Right Peak by UV HPLC; conditions: TBE 25%, pH 7.4, 19.5 h
[10] = mainly QS-21 family, negative control 26%

Molecule | Experiment 5-2 % conv [1] [%] | Experiment 5-3 % conv [2] [%] | Experiment 5-1 % conv [3] [%] | Peak57 (PAR %) [4] [%] | QS-17 (PAR %) [5] [%] | Left Peak ([6]; mainly QS-17 family, negative control 27%) [%] | Middle Peak ([6]; mainly QS-18 and desglucosyl-QS-17 family, negative control 48%) [%] | Right Peak [6, 10] [%] | Peak75 (PAR %) [7] [%] | ratio PP/QS-21 [8] | Left Peak ([9]; mainly QS-17 family, negative control 24%) [%] | Middle Peak ([9]; mainly QS-18 and desglucosyl-QS-17 family, negative control 50%) [%] | Right Peak [9, 10] [%]
804 (protein, listed as Microbacterium trichothecenolyticum) MTETATSTHTDSVQHLVPLLDRLTLEQKAALVQGADFWTTVPLPEIGLRAMTLSDGPAGVRGPRWDEREPSLNLPSGSALAASWDVDLAYRYGAAAASEARRKGVDVVLGPTINLHRSPLGGRHFECFSEDPELTAELAAAYVRGLQDNDVAACPKHYVANDSETDRFTVDVRVDERALRENYLAPFERAVDAGAWTIMSAYNAVDGVTMTENDLLETPLNSEWGFDGVVISDWTAVRSLDSVPAAQDLAMPGPAPAWADLVAAIRDGRLNEADLDRKVLRVLLLAQRVGALGEREPREPAPLDGPAFAREAAIEGTVLLRNEGVLPLDASSLGRVAVIGQNAREARTQGGGSATVIPESVVSPLDAIRAAVPGADVGFEIGAVVQEGVAEIPLAHLTNPATGEAGIRVAFFDADGTELFAENRRSTALVWFGGDAPIAASATVVFETLYTPAETGDIELGFAGANPGKLYVDGQLVLDDSPVIEGTDLGAAFLNPPSITATVAVEAGRETAVRVEFSRESHGALSGALSATLGIAPERTDADELIARAVAEAAASDLAIVVVGTNSKVESEGYDRTSLDLPGRQDDLVRAVAATGTPTVVVVNAGSPVVLPWAEDVAAVVQGYFGGQEFGHAIADVLTGAAEPGGRLPTTWPAALADVPVTEVVPTDGRLEYREGLHIGYRAWLKADAVPAFAFGHGLGYTTWSWGAAQRTGDTVEVTLANTGHRRGKQVVQVYAERPESAVERPERWLVGFATVHAAPGETVTATIPVPARRLAHWAGEWTVESGAYTLRAGASVADLPLSLEWRIAS | <0.5 | <0.5 | 83.2 |  |  |  |  |  |  |  |  |  | 
881 (protein, listed as Treponema azotonutricium) MTSKEIIPQMTLEEKAALCSGRDFWSLKGIERFGLEAIMVTDGPHGLRKQGGDGDHLGLNQSVPATCFPAACATACSFDRSLLEEIGAAMGEECRKEKVAVLLGPAANIKRSPLCGRNFEYISEDPFLTGEIAAALIKGVQKLGVGTSLKHYAVNNQEKRRMTINAVVDERAFREIYLAGFEKAVREAKPWTLMCSYNKINGTYASENKKLLTDILRDEWAYQGLVMTDWGASNNRLEGIKAGLDLQMPGPDADNDKRIIEAVKSGALSIEDLDKVVARVVDLIIKAGEGDSIGFACDMEAHHLLARRAAAESAVLLKNDENILPLVPGKTLAVIGAFAISPRYQGAGSSKINPSHLDKAFDAIMRTGIKAEYAPGYSLEAGSGVNEKLIAEAAKLAGEKDSAVVFAGLPDEYESEGFDRASMDMSESHNKLIEAVAKANPNTVVVLQLGSPVALPWADKVKGILLLYLSGQAGGGAAADLLTGNACPGGKLAETWPLALEDNPSYGNFPGSTKTVEYRESIFAGYRWYDALEKEVRYPFGFGLSYTSFEYSDLKLGTSAEAKDNFKKGDALKVSFTVKNTGSREGSETAQLYIAPDASVLFRAKKELKGFEKLHLKPGESKTVTLILDERSFAYYNVQAKDWSLEGGLYRILIGASSRDIRLEGKLELTGDKRETAFAFLKGGRPVFDDASFKAIYGAELPPKERLPGEPFTVNTSVEEIKDTPIGKALFGMAVQGLEQAFGKEKSDLKVMMESMLMDMPLRGLGMMSGGRLTPPVIEALVEALNGKPNPIASGLLGMK | <0.5 | <0.5 | 77.5 |  |  |  |  |  |  |  |  |  | 
888 (protein, uncultured Microbacterium sp.) MTESVAHLRPLLDALTLEQKAALVQGADFWTTVPLPEIGLRAMTLSDGPSGVRGPRWDEREPSLNLPSGSALAASWDVDLAYRYGAAAASEARRKGVDVVLGPTINLHRSPLGGRHFECFSEDPELTAELAAAYVRGMQDNGVAATPKHYVANDSETDRFTVDVDVDDRALRELYLAPFERAVEAGAWSVMSAYNAVDGVTMTENDLLETPLNSEWGFDGVVVSDWTAVRSLDAVAAAQDLAMPGPAPAWADLLAAVRDGRVQEADLDRKVLRLLLLAERVGALEGSTALEPAPVDAEAFAREAGIEGTVLLRNTGALPLDVAAIRSIAVIGHNARDARTQGGGSATVLPERTVSPLDGLREALPEADLRYEIGAVVQEGVAEIPVAQLRNPETGEPGLRVRFLDEDGAELFSEDRRSTALVWFGGDAPVAASSRVVFETVFTPAETGEIQLGFAGANPGRLYVDDRLVLDDTPVIEGTDLGAAFLNPPSLTAGVSVEQDTPIRVRVEFTLARGGALAGALSATVGIAPEATDPEALIARAVEAAAAADVAVVVVGTNSKVESEGYDRIDLDLPGRQDDLVRAVAATGTPVVVVVNAGSPVVLPWADEVSAIVQGYFGGQEFGHALADVLTGAAEPGGRLPTTWPATLADVPVQDVTPQDGVLTYGEGIHVGYRAWLKDAATPAFPFGHGLGYTTWSWGAAHRHGDAVDVTVRNTGDRAGKQVVQVYAERGDSSVDRPVRWLVGFATVHAEPGETVTATVPVPGRRLAHWADGWVVEPGAYTLRAGASVDDLPLALEWTVAE | <0.5 | <0.5 | 78.0 |  |  |  |  |  |  |  |  |  | 
1017 (protein, listed as Kribbella flavida) MSFPAAPARLRFEHRTDPGPVLGIGTATPRLSWQVPTAPDDYRQAGYEVEIARGDAAPEQYTVDSADQVLVPWPGTPLAARESATVRVRVRGDGDWSQWSDPATVEAGLLSADDWTARFVSPRENAGHEAPAPLIGGVIDLPADIAQARLYATAHGIYEPTLNGTRVGDEQLAPGWTAYEQRLRYQTYDVTDLVAPGENRLELLVGNGWYRGRLGFHGKHSLYGDRLAVLAQLEVTTATGEVKVLASDGTWTTRETNVLADDLYDGQHVDLRRTLGEPGPVDVLDADLSLLVAPDGPPVRVTDVLPAKAVTTSPAGKTLVDFGQNVVGRLRLRVRGGAAGDEIVLRHAEVLEDGELGVRPLRTAKATDSFVLAGPDEVTLEPTLTFHGFRYAEITGVPDLRAEDVEAVVVGSDLRRTGWFESSHPLLDRFHENVVWGMRGNFLDVPTDCPQRDERLGWTGDIQVFSPTASFLFDTAGFLTNWLADLIAEQHKDGSVPFVVPDVLRQPGPATAAWGDAATIVPWVLYERTGDAGLLARQLPSMRAWVDRMAGLAGDDLLWVGGFQFGDWLDPTAPPDDPFRAKADPDVLATAHLARSAEVVALAAEVVGAGELAREYAELAARVRQAFAAEYTTGSGRVLSDAATNYALALQWALLPTEAQRKRAGERLADLVRTAGFRISTGFVGTPLMADALADSGHPDLAYRLLLETGCPSWLYAVTMDATTVWERWDSMLPDGSINPGQMTSFNHYALGAVADWMHRRVAGLAPGDPGYRRIVVDPLFTAHLTKASARHLTPYGEAAVAWSRSGGRVRLEVTVPVGARARVAVPGESAPVEVGHGTHEWTADDVYGETPPLPADATIRQLIDHEPSWTTLAAAATRTGIVADDAELAGRLERYLDHPATELVDAVSPRGFSPSAEALQAELDSVLGR |  |  |  | 0.004 | 0.017 | 17 | 56 | 27 | 0.000 | 0.19 | 6 | 63 | 31
